Results reported in paper PMC5175368.

Target: PA63 (cleaved protective antigen) (Bacillus anthracis, UniProt P13423 197-764)
Assay: filter binding

Sequence of PA63 (cleaved protective antigen) (P13423 197-764): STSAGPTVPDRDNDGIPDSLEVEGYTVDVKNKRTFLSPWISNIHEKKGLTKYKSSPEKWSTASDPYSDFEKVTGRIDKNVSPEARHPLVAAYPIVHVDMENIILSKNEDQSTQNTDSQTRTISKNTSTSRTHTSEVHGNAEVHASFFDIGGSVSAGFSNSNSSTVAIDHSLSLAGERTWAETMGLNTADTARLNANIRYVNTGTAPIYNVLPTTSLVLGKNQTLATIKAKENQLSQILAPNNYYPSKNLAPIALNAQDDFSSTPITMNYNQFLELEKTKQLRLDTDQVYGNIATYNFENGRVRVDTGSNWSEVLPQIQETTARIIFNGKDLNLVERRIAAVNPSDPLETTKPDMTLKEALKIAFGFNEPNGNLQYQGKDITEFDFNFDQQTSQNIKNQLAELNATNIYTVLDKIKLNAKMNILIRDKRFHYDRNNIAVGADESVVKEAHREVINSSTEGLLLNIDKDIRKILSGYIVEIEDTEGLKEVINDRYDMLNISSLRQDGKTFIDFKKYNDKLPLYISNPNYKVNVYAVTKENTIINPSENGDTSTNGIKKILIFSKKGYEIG

Binder	binding result
CGTGTGGACCATGGGGTGAGTGGGTAGGTGTCCTGAGGAGGT (structured_DNA) [PA1T4StdG]	no binding
CGTGTGGACCATGGAGTGAGTGAGTAGGTGTCCTGAGGAGGT (structured_DNA) [PA1T4StdA]	no binding
PA1StdG (structured_DNA) DNA: AGAGAGCGTCGTGTGGACCATGGGGTGAGTGGGTAGGTGTCCTGAGGAGGTGCGCAAGT	no binding
PA1StdA (structured_DNA) DNA: AGAGAGCGTCGTGTGGACCATGGAGTGAGTGAGTAGGTGTCCTGAGGAGGTGCGCAAGT	no binding
